Laboratory results published in US20260132197A1 (NANJING LEGEND BIOTECH, published 2026).

How the values were obtained:
Human CD47-C33G [1] = molecular target: T1, Human CD47-C33G (human, UniProt Q08722 19-135); assay: SPR, IgG captured, CD47 in flow; exp 3;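 further: other target is a CD47 mutein carrying C33G, used to obtain true monovalent affinity, with kon and koff fitted from SPR binding curves and KD derived from both rates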
T1 construct: also called CD47 mutein with C33G mutation

[2] = molecular target: T2, wild type human CD47 (Acro Biosystems, cat. no. CD7-H5227) (human, UniProt Q08722 19-139); assay: SPR, IgG captured, CD47 in flow; exp 3;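 further: other target is a CD47 mutein carrying C33G, used to obtain true monovalent affinity, with kon and koff fitted from SPR binding curves and KD derived from both rates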
T2 construct: Bought protein used as SPR analyte; also called Human CD47 wt; wild-type CD47
T2 sequence (Q08722 19-139 limits assumed): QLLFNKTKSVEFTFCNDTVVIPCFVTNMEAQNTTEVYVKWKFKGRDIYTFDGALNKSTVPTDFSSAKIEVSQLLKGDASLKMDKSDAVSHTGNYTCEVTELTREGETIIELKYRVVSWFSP

[3] = molecular target: T2, wild type human CD47 (Acro Biosystems, …); assay: SPR, IgG captured, CD47 in flow; exp 2;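 further: rates derived from association and dissociation curves, KD estimated from them, C33G mutein used to avoid CD47 IgV homodimers for true monovalent affinity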
Human CD47-C33G [4] = molecular target: T1, Human CD47-C33G; assay: SPR, IgG captured, CD47 in flow; exp 2;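 further: rates derived from association and dissociation curves, KD estimated from them, C33G mutein used to avoid CD47 IgV homodimers for true monovalent affinity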

T1 sequence (Q08722 19-135 C33G limits assumed): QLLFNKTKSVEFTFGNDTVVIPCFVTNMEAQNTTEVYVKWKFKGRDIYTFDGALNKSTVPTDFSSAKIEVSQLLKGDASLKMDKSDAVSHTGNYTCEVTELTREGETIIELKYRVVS

Binder	Kd (Human CD47-C33G [1]) [nM]	koff (Human CD47-C33G [1]) [s⁻¹]	kon (Human CD47-C33G [1]) [M⁻¹ s⁻¹]	Kd [2] [nM]	koff [2] [s⁻¹]	kon [2] [M⁻¹ s⁻¹]	Kd [3] [nM]	koff [3] [s⁻¹]	kon [3] [M⁻¹ s⁻¹]	Kd (Human CD47-C33G [4]) [nM]	koff (Human CD47-C33G [4]) [s⁻¹]	kon (Human CD47-C33G [4]) [M⁻¹ s⁻¹]	binding result (Human CD47-C33G [4])
108VH10.Mg / 108VL10.Me (antibody, V domains shown, 4D5-framework series; constant regions not restated for this series; also called VH10.Mg VL10.Me) VH: EVQLVESGGGLVQPGGSLRLSCAASGFTFSHHWIHWVRQAPGKGLEWVAMIDASDSETRLSQKFKDRFTISADTSKNTAYLQMNSLRAEDTAVYYCSRLGRYYFDYWGQGTLVTVSS VL: DIQMTQSPSSLSASVGDRVTITCRASQSISSYLNWYQQKPGKAPKLLIYGASSRYSGVPSRFSGSRSGTDFTLTISSLQPEDFATYYCGESYGHLYTFGQGTKVEIK	31	0.0072	230000	4.8	0.0032	680000	–	–	–	–	–	–	–
108VH10.Md / 108VL10.M1 (antibody, V domains shown, 4D5-framework series; constant regions not restated for this series; Asp52 replaced with Lys; also called VH10.Md VL10.M1) VH: EVQLVESGGGLVQPGGSLRLSCAASGYSFTHHWIHWVRQAPGKGLEWVAMIKPSDSETRLSQKFKDRFTISADTSKNTAYLQMNSLRAEDTAVYYCSRLGRYYFDYWGQGTLVTVSS VL: DIQMTQSPSSLSASVGDRVTITCRASENVGTYISWYQQKPGKAPKLLIYGASNRYTGVPSRFSGSRSGTDFTLTISSLQPEDFATYYCGESYGHLYTFGQGTKVEIK	–	–	–	–	–	–	–	–	–	–	–	–	no binding (tested: 2.5 nM to 1.28 µM of antigen tested)
108VH10 / 108VL10.Ma (antibody, V domains shown, 4D5-framework series; constant regions not restated for this series; also called VH10 VL10.Ma) VH: EVQLVESGGGLVQPGGSLRLSCAASGYSFTHHWIHWVRQAPGKGLEWVAMIDPSDSETRLSQKFKDRFTISADTSKNTAYLQMNSLRAEDTAVYYCSRLGRYYFDYWGQGTLVTVSS VL: DIQMTQSPSSLSASVGDRVTITCRASQSISSYLNWYQQKPGKAPKLLIYGASNRYTGVPSRFSGSRSGTDFTLTISSLQPEDFATYYCGESYGHLYTFGQGTKVEIK	–	–	–	–	–	–	1.4	0.0015	1e+06	8	0.0029	360000	–
108VH10 / 108VL10.Mc (antibody, V domains shown, 4D5-framework series; constant regions not restated for this series; also called VH10 VL10.Mc) VH: EVQLVESGGGLVQPGGSLRLSCAASGYSFTHHWIHWVRQAPGKGLEWVAMIDPSDSETRLSQKFKDRFTISADTSKNTAYLQMNSLRAEDTAVYYCSRLGRYYFDYWGQGTLVTVSS VL: DIQMTQSPSSLSASVGDRVTITCRASENVGTYISWYQQKPGKAPKLLIYGASSRYTGVPSRFSGSRSGTDFTLTISSLQPEDFATYYCGESYGHLYTFGQGTKVEIK	–	–	–	–	–	–	10	0.002	190000	64	0.0044	69000	–

Now from value to binder, other results behind:

Kd (Human CD47-C33G [1]) [nM]	koff (Human CD47-C33G [1]) [s⁻¹]	kon (Human CD47-C33G [1]) [M⁻¹ s⁻¹]	Kd [2] [nM]	koff [2] [s⁻¹]	kon [2] [M⁻¹ s⁻¹]	Kd [3] [nM]	koff [3] [s⁻¹]	kon [3] [M⁻¹ s⁻¹]	Kd (Human CD47-C33G [4]) [nM]	koff (Human CD47-C33G [4]) [s⁻¹]	kon (Human CD47-C33G [4]) [M⁻¹ s⁻¹]	Binder	binding result (Human CD47-C33G [4])
–	–	–	–	–	–	53	0.0027	52000	–	–	–	108VH10.Me / 108VL10.M1 (antibody, V domains shown, 4D5-framework series; constant regions not restated for this series; Pro53 replaced with Gln; also called VH10.Me VL10.M1) VH: EVQLVESGGGLVQPGGSLRLSCAASGYSFTHHWIHWVRQAPGKGLEWVAMIDQSDSETRLSQKFKDRFTISADTSKNTAYLQMNSLRAEDTAVYYCSRLGRYYFDYWGQGTLVTVSS VL: DIQMTQSPSSLSASVGDRVTITCRASENVGTYISWYQQKPGKAPKLLIYGASNRYTGVPSRFSGSRSGTDFTLTISSLQPEDFATYYCGESYGHLYTFGQGTKVEIK	–
–	–	–	–	–	–	6.5	0.0016	240000	39	0.0035	89000	108VH10.Mb / 108VL10.M1 (antibody, V domains shown, 4D5-framework series; constant regions not restated for this series; also called VH10.Mb VL10.M1) VH: EVQLVESGGGLVQPGGSLRLSCAASGYSFTHHWMHWVRQAPGKGLEWVAMIDPSDSETRLSQKFKDRFTISADTSKNTAYLQMNSLRAEDTAVYYCSRLGRYYFDYWGQGTLVTVSS VL: DIQMTQSPSSLSASVGDRVTITCRASENVGTYISWYQQKPGKAPKLLIYGASNRYTGVPSRFSGSRSGTDFTLTISSLQPEDFATYYCGESYGHLYTFGQGTKVEIK	–
38	0.0087	230000	5.2	0.0034	640000	–	–	–	–	–	–	108VH10.Mi / 108VL10.Me (antibody, V domains shown, 4D5-framework series; constant regions not restated for this series; also called VH10.Mi VL10.Me) VH: EVQLVESGGGLVQPGGSLRLSCAASGFTFSHHWIHWVRQAPGKGLEWVAMIDASDSETRLSDKFKDRFTISADTSKNTAYLQMNSLRAEDTAVYYCSRLGRYYFDYWGQGTLVTVSS VL: DIQMTQSPSSLSASVGDRVTITCRASQSISSYLNWYQQKPGKAPKLLIYGASSRYSGVPSRFSGSRSGTDFTLTISSLQPEDFATYYCGESYGHLYTFGQGTKVEIK	–
